Test results: paper PMC12520357 (2025)

T1: 14-3-3 proteins, P29311
T1 chain: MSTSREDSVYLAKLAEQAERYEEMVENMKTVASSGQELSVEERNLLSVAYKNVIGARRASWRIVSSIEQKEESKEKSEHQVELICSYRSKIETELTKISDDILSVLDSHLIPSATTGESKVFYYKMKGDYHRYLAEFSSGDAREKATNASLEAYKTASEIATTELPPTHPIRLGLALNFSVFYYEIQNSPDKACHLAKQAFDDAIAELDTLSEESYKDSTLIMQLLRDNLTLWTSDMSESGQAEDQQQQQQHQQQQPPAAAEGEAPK


Target: T1, 14-3-3 proteins, P29311
Assay: co-immunoprecipitation (anti-FLAG IP, immunoblot quantification)
Conditions: chain shown with the change; n = 3; reg1Δ Snf1-GFP Glc7-GFP cells; parent: est. 1.0; read off a plot

Binder | ratio to parent
Reg1-FLAG (wild type), Q00816 P278Q (protein) MSTNLANYFAGKKDIENEHVNRNASHESNSKSDVKISGNDNDNDEDMGPSVSMAVQAKNDDDFHKSTFNLKRTRSMGLLDEYIDPTKKLLGRSDDLYDNDNEYYDNSSNNSSSNSSDDDYDDGYQEHSTSVSPPPADNDSYLIPQDDNDVVVEPERHVDYLSHEWKESEISNSWKYIILKKKKRDVDLVNAARLENASWRTWAKARNNLKTVSPEVVNWSKDSDVTWLYGPIVRDSEGNAQSEEEHDLERGYGSDDENSKRISMPTKNSKSIAAAPKQILKKRTVTEIIEDNALWKLNEARKHMTEMKHASVIMDPNGNKNVHDDFDALAAQVNAQYYHYPKESNSSVSLKSQHSDKKDNSTIPNPVGENSNGGGDKGEEDLHLKSALHVQNNRSTAQSNKSILENSTNDRKANLDQNLNSPDNNRFPSSTSSSNRDNENNSMGLSSILTSNPSEKSNKPTKNRHIHFNDRVEQCMALRYPASQSEDDESDDENKQYVDVNNNANVTTINNNRTPLLAIQHKSIPINSATEHLNKNTSDDDTSSQSSSSSHSDDEEHGGLYINARFSRRSDSGVHSPITDNSSVASSTTSRAHVRPIIKLLPDTTLNYGSDEESDNGEFNGYGNAVSHNVNTSRGYDYIYDYNSVYTGDTSSFLPVDSCDIVDVPEGMDLQTAIADDNASNYEFNNAVESKEKHVPQLHKASANNTTRQHGSHMLLYDDDNYSSSSDSEQQFIEDSQYNSSDDEEEEDDDDQEVDDNHDEGLSLRRTLSLGKSGSTNSLYDLAQPSLSSATPQQKNPTNFTGGKTDVDKDAQLAVRPYPLKRNSSSGNFIFNSDSEEESSSEEEQRPLPANSQLVNRSVLKGSVTPANISSQKKKALPKQPKASDSSQSFRIVNNTPSPAEVGASDVAIEGYFSPRNESIKSVVSGGNMMDHQDHSEMDTLAKGFENCHINNASKLKDKKVDSVQTTRKEASLTDSSNESLHKVVQNARGMASKYLHSWKKSDVKPQENGNDSS | 1.2
Reg1-FLAG (wild type), Q00816 W165G (protein) MSTNLANYFAGKKDIENEHVNRNASHESNSKSDVKISGNDNDNDEDMGPSVSMAVQAKNDDDFHKSTFNLKRTRSMGLLDEYIDPTKKLLGRSDDLYDNDNEYYDNSSNNSSSNSSDDDYDDGYQEHSTSVSPPPADNDSYLIPQDDNDVVVEPERHVDYLSHEGKESEISNSWKYIILKKKKRDVDLVNAARLENASWRTWAKARNNLKTVSPEVVNWSKDSDVTWLYGPIVRDSEGNAQSEEEHDLERGYGSDDENSKRISMPTKNSKSIAAAPKPILKKRTVTEIIEDNALWKLNEARKHMTEMKHASVIMDPNGNKNVHDDFDALAAQVNAQYYHYPKESNSSVSLKSQHSDKKDNSTIPNPVGENSNGGGDKGEEDLHLKSALHVQNNRSTAQSNKSILENSTNDRKANLDQNLNSPDNNRFPSSTSSSNRDNENNSMGLSSILTSNPSEKSNKPTKNRHIHFNDRVEQCMALRYPASQSEDDESDDENKQYVDVNNNANVTTINNNRTPLLAIQHKSIPINSATEHLNKNTSDDDTSSQSSSSSHSDDEEHGGLYINARFSRRSDSGVHSPITDNSSVASSTTSRAHVRPIIKLLPDTTLNYGSDEESDNGEFNGYGNAVSHNVNTSRGYDYIYDYNSVYTGDTSSFLPVDSCDIVDVPEGMDLQTAIADDNASNYEFNNAVESKEKHVPQLHKASANNTTRQHGSHMLLYDDDNYSSSSDSEQQFIEDSQYNSSDDEEEEDDDDQEVDDNHDEGLSLRRTLSLGKSGSTNSLYDLAQPSLSSATPQQKNPTNFTGGKTDVDKDAQLAVRPYPLKRNSSSGNFIFNSDSEEESSSEEEQRPLPANSQLVNRSVLKGSVTPANISSQKKKALPKQPKASDSSQSFRIVNNTPSPAEVGASDVAIEGYFSPRNESIKSVVSGGNMMDHQDHSEMDTLAKGFENCHINNASKLKDKKVDSVQTTRKEASLTDSSNESLHKVVQNARGMASKYLHSWKKSDVKPQENGNDSS | 1.1
Reg1-FLAG (wild type), Q00816 N624S (protein) MSTNLANYFAGKKDIENEHVNRNASHESNSKSDVKISGNDNDNDEDMGPSVSMAVQAKNDDDFHKSTFNLKRTRSMGLLDEYIDPTKKLLGRSDDLYDNDNEYYDNSSNNSSSNSSDDDYDDGYQEHSTSVSPPPADNDSYLIPQDDNDVVVEPERHVDYLSHEWKESEISNSWKYIILKKKKRDVDLVNAARLENASWRTWAKARNNLKTVSPEVVNWSKDSDVTWLYGPIVRDSEGNAQSEEEHDLERGYGSDDENSKRISMPTKNSKSIAAAPKPILKKRTVTEIIEDNALWKLNEARKHMTEMKHASVIMDPNGNKNVHDDFDALAAQVNAQYYHYPKESNSSVSLKSQHSDKKDNSTIPNPVGENSNGGGDKGEEDLHLKSALHVQNNRSTAQSNKSILENSTNDRKANLDQNLNSPDNNRFPSSTSSSNRDNENNSMGLSSILTSNPSEKSNKPTKNRHIHFNDRVEQCMALRYPASQSEDDESDDENKQYVDVNNNANVTTINNNRTPLLAIQHKSIPINSATEHLNKNTSDDDTSSQSSSSSHSDDEEHGGLYINARFSRRSDSGVHSPITDNSSVASSTTSRAHVRPIIKLLPDTTLNYGSDEESDNGEFNGYGSAVSHNVNTSRGYDYIYDYNSVYTGDTSSFLPVDSCDIVDVPEGMDLQTAIADDNASNYEFNNAVESKEKHVPQLHKASANNTTRQHGSHMLLYDDDNYSSSSDSEQQFIEDSQYNSSDDEEEEDDDDQEVDDNHDEGLSLRRTLSLGKSGSTNSLYDLAQPSLSSATPQQKNPTNFTGGKTDVDKDAQLAVRPYPLKRNSSSGNFIFNSDSEEESSSEEEQRPLPANSQLVNRSVLKGSVTPANISSQKKKALPKQPKASDSSQSFRIVNNTPSPAEVGASDVAIEGYFSPRNESIKSVVSGGNMMDHQDHSEMDTLAKGFENCHINNASKLKDKKVDSVQTTRKEASLTDSSNESLHKVVQNARGMASKYLHSWKKSDVKPQENGNDSS | 1.4
Reg1-FLAG (wild type), Q00816 P231S (protein) MSTNLANYFAGKKDIENEHVNRNASHESNSKSDVKISGNDNDNDEDMGPSVSMAVQAKNDDDFHKSTFNLKRTRSMGLLDEYIDPTKKLLGRSDDLYDNDNEYYDNSSNNSSSNSSDDDYDDGYQEHSTSVSPPPADNDSYLIPQDDNDVVVEPERHVDYLSHEWKESEISNSWKYIILKKKKRDVDLVNAARLENASWRTWAKARNNLKTVSPEVVNWSKDSDVTWLYGSIVRDSEGNAQSEEEHDLERGYGSDDENSKRISMPTKNSKSIAAAPKPILKKRTVTEIIEDNALWKLNEARKHMTEMKHASVIMDPNGNKNVHDDFDALAAQVNAQYYHYPKESNSSVSLKSQHSDKKDNSTIPNPVGENSNGGGDKGEEDLHLKSALHVQNNRSTAQSNKSILENSTNDRKANLDQNLNSPDNNRFPSSTSSSNRDNENNSMGLSSILTSNPSEKSNKPTKNRHIHFNDRVEQCMALRYPASQSEDDESDDENKQYVDVNNNANVTTINNNRTPLLAIQHKSIPINSATEHLNKNTSDDDTSSQSSSSSHSDDEEHGGLYINARFSRRSDSGVHSPITDNSSVASSTTSRAHVRPIIKLLPDTTLNYGSDEESDNGEFNGYGNAVSHNVNTSRGYDYIYDYNSVYTGDTSSFLPVDSCDIVDVPEGMDLQTAIADDNASNYEFNNAVESKEKHVPQLHKASANNTTRQHGSHMLLYDDDNYSSSSDSEQQFIEDSQYNSSDDEEEEDDDDQEVDDNHDEGLSLRRTLSLGKSGSTNSLYDLAQPSLSSATPQQKNPTNFTGGKTDVDKDAQLAVRPYPLKRNSSSGNFIFNSDSEEESSSEEEQRPLPANSQLVNRSVLKGSVTPANISSQKKKALPKQPKASDSSQSFRIVNNTPSPAEVGASDVAIEGYFSPRNESIKSVVSGGNMMDHQDHSEMDTLAKGFENCHINNASKLKDKKVDSVQTTRKEASLTDSSNESLHKVVQNARGMASKYLHSWKKSDVKPQENGNDSS | 1.2
Reg1-FLAG (wild type), Q00816 A54T (protein) MSTNLANYFAGKKDIENEHVNRNASHESNSKSDVKISGNDNDNDEDMGPSVSMTVQAKNDDDFHKSTFNLKRTRSMGLLDEYIDPTKKLLGRSDDLYDNDNEYYDNSSNNSSSNSSDDDYDDGYQEHSTSVSPPPADNDSYLIPQDDNDVVVEPERHVDYLSHEWKESEISNSWKYIILKKKKRDVDLVNAARLENASWRTWAKARNNLKTVSPEVVNWSKDSDVTWLYGPIVRDSEGNAQSEEEHDLERGYGSDDENSKRISMPTKNSKSIAAAPKPILKKRTVTEIIEDNALWKLNEARKHMTEMKHASVIMDPNGNKNVHDDFDALAAQVNAQYYHYPKESNSSVSLKSQHSDKKDNSTIPNPVGENSNGGGDKGEEDLHLKSALHVQNNRSTAQSNKSILENSTNDRKANLDQNLNSPDNNRFPSSTSSSNRDNENNSMGLSSILTSNPSEKSNKPTKNRHIHFNDRVEQCMALRYPASQSEDDESDDENKQYVDVNNNANVTTINNNRTPLLAIQHKSIPINSATEHLNKNTSDDDTSSQSSSSSHSDDEEHGGLYINARFSRRSDSGVHSPITDNSSVASSTTSRAHVRPIIKLLPDTTLNYGSDEESDNGEFNGYGNAVSHNVNTSRGYDYIYDYNSVYTGDTSSFLPVDSCDIVDVPEGMDLQTAIADDNASNYEFNNAVESKEKHVPQLHKASANNTTRQHGSHMLLYDDDNYSSSSDSEQQFIEDSQYNSSDDEEEEDDDDQEVDDNHDEGLSLRRTLSLGKSGSTNSLYDLAQPSLSSATPQQKNPTNFTGGKTDVDKDAQLAVRPYPLKRNSSSGNFIFNSDSEEESSSEEEQRPLPANSQLVNRSVLKGSVTPANISSQKKKALPKQPKASDSSQSFRIVNNTPSPAEVGASDVAIEGYFSPRNESIKSVVSGGNMMDHQDHSEMDTLAKGFENCHINNASKLKDKKVDSVQTTRKEASLTDSSNESLHKVVQNARGMASKYLHSWKKSDVKPQENGNDSS | 1.2
